Reference: US20150307616A1 (APEXIGEN, published 2015)

Tests used:
[1] = target: T1, human CD40 on the cell surface (human, UniProt P25942 21-277); assay: cell-based or functional assay
[2] = target: T1, human CD40 on the cell surface; assay: cell-based or functional assay; remark: listed apart in the source

T1 sequence (P25942 21-277): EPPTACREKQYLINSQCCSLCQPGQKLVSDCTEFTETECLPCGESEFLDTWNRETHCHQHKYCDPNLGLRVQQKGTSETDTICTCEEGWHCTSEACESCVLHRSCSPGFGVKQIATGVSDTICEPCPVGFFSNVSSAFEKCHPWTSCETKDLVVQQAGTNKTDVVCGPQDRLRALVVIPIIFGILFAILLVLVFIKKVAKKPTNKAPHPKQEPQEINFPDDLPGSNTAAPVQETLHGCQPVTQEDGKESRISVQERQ

Binder | CD83 expression on human monocyte-derived DC (DC maturation assay) [1] | ADCC (% cytotoxicity of Ramos cell at 1 µg/ml) [2] | Pro-apoptosis activity (IC50) [2]
19-21 rabbit anti-CD40 antibody (antibody, V domains shown) VH: QSLEESGGRLVTPGTPLTLTCTVSGFDLSSNAMNWVRQAPGKGLEWIGYITISGSAGYASWAKGRFTISKTSTTVDLKISSPTTEDTATYFCARGYNTMAIWGPGTLVTVSS VL: AQVLTQTPSPVSAPVGGTVTINCQSSQNVLINNRLAWYQQKPGQPPKLLIYDASKLASGVPSRFKGSGSGTQFTLTISGVQCDDAATYYCQAGYSSGDGNAFGGGTEVVVK | > 50% |  | 
c19-21 chimeric anti-CD40 antibody (antibody, V domains shown) VH: QSLEESGGRLVTPGTPLTLTCTVSGFDLSSNAMNWVRQAPGKGLEWIGYITISGSAGYASWAKGRFTISKTSTTVDLKISSPTTEDTATYFCARGYNTMAIWGPGTLVTVSS VL: AQVLTQTPSPVSAPVGGTVTINCQSSQNVLINNRLAWYQQKPGQPPKLLIYDASKLASGVPSRFKGSGSGTQFTLTISGVQCDDAATYYCQAGYSSGDGNAFGGGTEVVVK |  | 26% | 0.02 µg/mL
R-6 rabbit anti-CD40 antibody (antibody, V domains shown) VH: GGSLTLTGTASGFSFSSSYSMCWVRQAPGKGLEWIGCIDTGRGYTYHASGAKGRFTFSKTSSTTVTLQMTSLTAADTATYFCARSSYVRYDNRNYGFNLWGPGTLVTVSS VL: DIVMTQTPASVEAAVGGTITINCQASESISSWLSWYQQKPGQRPKLLIYYTSNLASGVPSRFKGSGAGTDFTLTISDLECADAATYYCQSNYGSSSSTYYGFGGGTEVVVK | > 50% |  | 
cR-33 chimeric anti-CD40 antibody (antibody, V domains shown) VH: QSLEESGGDLVKPGASLTLTCTASGFSFSSSYWICWVRQAPGKGLEWIACINTGSSVTTVYARWAKGRFTISKASSTTVTLQMTSLTAADTATYFCARYIIPGYNFNLWGPGTLVTVSS VL: AYDMTQTPASVEVAVGGTVTINCQASQSISSYLYWYQQKPGQPPKLLIYDASKLASGVPSRFKGSGSGTQFTLTITGVECADAATYYCQQGYSHINVDNIFGGGTEVVVK |  | 29% | 0.9 µg/mL
R-33 rabbit anti-CD40 antibody (antibody, V domains shown) VH: QSLEESGGDLVKPGASLTLTCTASGFSFSSSYWICWVRQAPGKGLEWIACINTGSSVTTVYARWAKGRFTISKASSTTVTLQMTSLTAADTATYFCARYIIPGYNFNLWGPGTLVTVSS VL: AYDMTQTPASVEVAVGGTVTINCQASQSISSYLYWYQQKPGQPPKLLIYDASKLASGVPSRFKGSGSGTQFTLTITGVECADAATYYCQQGYSHINVDNIFGGGTEVVVK | > 50% |  | 
R-24 rabbit anti-CD40 antibody (antibody, V domains shown) VH: QSLEESGGDLVKPGASLTLTCTASGFSFSRGYYICWVRQAPGKGLEWIACIGAGSGGTYFASWAKGRFSISRTSSTTVTLQMTSLTAADTATYFCAREDAGNDDYGYARNLWGPGTLVTVSS VL: DIVMTQTPASVSAAVGGTVTINCQASESAYTLLAWYQQKPGQPPKLLIYGASILESGVPSRFKGSGSGTDFTLTISDLECADAATYYCQSHYFGSSSGYANTFGGGTEVVVK | > 50% |  | 
R-18 rabbit anti-CD40 antibody (antibody, V domains shown) VH: QSLEESGGDLVKPGASLTLTCTASGIDFSSYYYMCWVRQAPGKGLEWIGCIYAGSGSTYYASWAKGRFTISKTSSTTVTLQMTSLTAADTATYFCARSGYNDGSYYNLWGPGTLVTVSS VL: DIVMTQTPSSVEAAVGGTVTIKCQASQSIYTWLAWYQQKPGQPPKLLIYKASTLASGVPSRFKGSGSGTDYTLTISDLECDDAATYYCQRYSWNGSYGVSFGGGTEVVVR | > 50% |  | 
19-45 rabbit anti-CD40 antibody (antibody, V domains shown) VH: QSVEESGGRLVTPGTPLTLNCTVSGFSLSSYDMNWVRQAPGKGLEWIGVIWNNGEIFYASWAKGRFTISKTSTTVDLKITSPSTEDTATYFCAGDADGGVVSYFHVWGPGTLVTVSS VL: AYDMTQTPASVEVAVGGTVTIKCQASQTIYTYLAWYLQKPGQPPKLLIYEASKLASGVSSRFEGSGSGTQFTLTISGVQCDDAATYYCQQGYNSRHVDNVFGGGTEVVVK | > 50% |  | 
cR-8 chimeric anti-CD40 antibody (antibody, V domains shown) VH: QSLEESGGDLVKPGASLTLTCTASGFSFSSTYVCWVRQAPGKGLEWIACIYTGDGTNYSASWAKGRFTISKPSSTTVTLQMTSLTPADTATYFCARPDITYGFAINFWGPGTLVTVSS VL: DIVMTQTPSSASEPVGGTVTIKCQASQSISSRLAWYQQKPGQPPKLLIYRASTLASGVPSRFKGSGSGTEFTLTISDLECADAATYYCQCTGYGISWPIGGGTEVVVK |  | 33% | 0.45 µg/mL
R-9 rabbit anti-CD40 antibody (antibody, V domains shown) VH: QSLEESGGDLVKPGASLTLTCTASRFSFSSTYMCWVRQAPGKGLEWIACTYTGSSGGTYYASWAKGRFTISQTSSTTVTLQLTGLTPADTATYFCARPDVGFDFAINFWGPGTLVTVSS VL: DIVMTQTPSSASEPVGGTVTIKCQASQSISSRLAWYQQKPGQPPKLLIYRASTLASGVSSRFKGSGSGTQFTLTISDLECADAATYYCQCTGYTISWPFGGGTEVVVK | > 50% |  | 
R-16 rabbit anti-CD40 antibody (antibody, V domains shown) VH: QSLEESGGGLVKPGGTLTLTCKASGFSLNYYWPCWVRQAPGKGLEWVACLNGGDSDTTVYARWAKGRFTISKASSTTVTLQMTSLTAADTATYFCARYIIPGYHFNLWGPGTLVTVSS VL: AYDMTQTPASVSAAVGDTVTIKCQASQSISSYLYWYQQKPGQPPKLLIYQASKLASGVPSRFKGSGSGTEYTLTISDLECADVATYYCQQGYSHINVDNIFGGGFQVVVK | > 50% |  | 
R-3 rabbit anti-CD40 antibody (antibody, V domains shown) VH: QSLEESGGDLVKPGASLTLTCTASGFSFSDSFWIAWVRQAPGKGLEWIGCIHALSSGSTYYANWARGRFTISKTSSTTVTLQMNSLTAADTATYFCARSYAGYADYNVATGLNLWGPGTLVTVSS VL: DVVMTQTPSSASAAVGGTVTTKCQASQSIGSYLAWYQQKPGQRPKLLIYAASNLASGVPSRFKGSRSGTEYTLTISGVQREDAATYYCLGSFTGSDTTFGGGTELEIL | > 50% |  | 
cR-3 chimeric anti-CD40 antibody (antibody, V domains shown) VH: QSLEESGGDLVKPGASLTLTCTASGFSFSDSFWIAWVRQAPGKGLEWIGCIHALSSGSTYYANWARGRFTISKTSSTTVTLQMNSLTAADTATYFCARSYAGYADYNVATGLNLWGPGTLVTVSS VL: DVVMTQTPSSASAAVGGTVTTKCQASQSIGSYLAWYQQKPGQRPKLLIYAASNLASGVPSRFKGSRSGTEYTLTISGVQREDAATYYCLGSFTGSDTTFGGGTELEIL |  | 30% | 0.57 µg/mL
19-59 rabbit anti-CD40 antibody (antibody, V domains shown) VH: QSVEESGGRLVTPGTPLTLTCTVSGFSLSDYVMRWVRQAPGKGLEWIGVISSAGNTYYATWAKDRFTISKTSTTVDLRIASPTTEDTATYFCARIWRPDDPTNSDIWGPGTLVTVSS VL: DVVMTQTPSSTSAAVGGTVTIKCQASESISSSLAWYQQKPGQPPKLLIYYASDLASGVPSRFSGSRSGTEYTLTISGVQREDAATYYCLGGYATAAYRTAFGGGTELEIL | > 50% |  | 
R-36 rabbit anti-CD40 antibody (antibody, V domains shown) VH: QQQLVESGGGLVKPGASLTLTCKASGFSFSSTYWICWVRQAPGKGLEWIGCINSDDSGTNVYANWAKGRFTISKASSTTVTLQMTSLTAADTATYFCARYPIPGYHFNLWGPGTLVTVSS VL: AYDMTQTPASVEVAVGGTVTIKCQASQNIYGYLFWYQQKPGQPPNLLIAEASKLPSGVPSRFKGSGSGTEYSLTISGVECADAATYYCQQSYSHINVDNIFGGGTEVVVK | > 50% |  | 
